# According to the supplement of paper PMC11908140:
# B1: library; numbered along this chain (parent)
# chain: MRKPRAAVGSGHRKQAASQEGRQKHAKNNSQAKPSACDGLARQPEEVVLQASVSSYHLFRDVAEVTAFRGSLLSWYDQEKRDLPWRRRAEDEMDLDRRAYAVWVSEVMLQQTQVATVINYYTGWMQKWPTLQDLASASLEEVNQLWAGLGYYSRGRRLQEGARKVVEELGGHMPRTAETLQQLLPGVGRYTAGAIASIAFGQATGVVDGNVARVLCRVRAIGADPSSTLVSQQLWGLAQQLVDPARPGDFNQAAMELGATVCTPQRPLCSQCPVESLCRARQRVEQEQLLASGSLSGSPDVEECAPNTGQCHLCLPPSEPWDQTLGVVNFPRKASRKPPREESSATCVLEQPGALGAQILLVQRPNSGLLAGLWEFPSVTWEPSEQLQRKALLQELQRWAGPLPATHLRHLGEVVHTFSHIKLTYQVYGLALEGQTPVTTVPPGARWLTQEEFHTAAVSTAMKKVFRVYQGQQPGTCMGSKRSQVSSPCSRKKPRMGQQVLDNFFRSHISTDAHSLNSAAQ
# Variants of: B1
# Assay: 8OG:A repair function score (normalized; synonymous = 0, nonsense = -1) (normalized log-likelihood score); higher = more repair activity (WT-like)
# Settings: with 8OG:A DNA repair reporter (GFP) in HEK-293 MUTYH KO cells
# Protocol: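 Saturation mutagenesis (NNN codon scan) of the MUTYH cDNA (521-aa nuclear isoform NM_001048174.1 / NP_001041639), stably expressed under doxycycline induction in HEK-293 MUTYH knockout cells. Cells were co-transfected with an 8OG:A-bearing GFP repair reporter plus mCherry and sorted 72 h later into GFP+ and GFP− bins, three replicates per tile. The Rosace log2 enrichment (GFP+ vs GFP−) was converted per tile to a normalized function score with synonymous variants centered at 0 and nonsense variants (codons 1-471) at -1; low-abundance variants were removed.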
row,Variant,8OG:A repair function score
1,MRKPRAAVGSGHRKQAASQEGRQKHAKNNSQAKPSACDGLARQPEEVVLQASVSSYHLFRDVAEVTAFRGSLLSWYDQEKRDLPWRRRAEDEMDLDRRAYAVWVSEVMLQQTQVATVINYYTGWMQKWPTLQDLASASLEEVNQLWAGLGYYSRGRRLQEGARKVVEELGGHMPRTAETLQQLLPGVGRTTAGAIASIAFGQATGVVDGNVARVLCRVRAIGADPSSTLVSQQLWGLAQQLVDPARPGDFNQAAMELGATVCTPQRPLCSQCPVESLCRARQRVEQEQLLASGSLSGSPDVEECAPNTGQCHLCLPPSEPWDQTLGVVNFPRKASRKPPREESSATCVLEQPGALGAQILLVQRPNSGLLAGLWEFPSVTWEPSEQLQRKALLQELQRWAGPLPATHLRHLGEVVHTFSHIKLTYQVYGLALEGQTPVTTVPPGARWLTQEEFHTAAVSTAMKKVFRVYQGQQPGTCMGSKRSQVSSPCSRKKPRMGQQVLDNFFRSHISTDAHSLNSAAQ [Y190T],-0.419
2,MRKPRAAVGSGHRKQAASQEGRQKHAKNNSQAKPSACDGLARQPEEVVLQASVSSYHLFRDVAEVTAFRGSLLSWYDQEKRDLPWRRRAEDEMDLDRRAYAVWVSEVMLQQTQVATVINYYTGWMQKWPTLQDLASASLEEVNQLWAGLGYYSRGRRLQEGARKVVEELGGHMPRTAETLQQLLPGVGRPTAGAIASIAFGQATGVVDGNVARVLCRVRAIGADPSSTLVSQQLWGLAQQLVDPARPGDFNQAAMELGATVCTPQRPLCSQCPVESLCRARQRVEQEQLLASGSLSGSPDVEECAPNTGQCHLCLPPSEPWDQTLGVVNFPRKASRKPPREESSATCVLEQPGALGAQILLVQRPNSGLLAGLWEFPSVTWEPSEQLQRKALLQELQRWAGPLPATHLRHLGEVVHTFSHIKLTYQVYGLALEGQTPVTTVPPGARWLTQEEFHTAAVSTAMKKVFRVYQGQQPGTCMGSKRSQVSSPCSRKKPRMGQQVLDNFFRSHISTDAHSLNSAAQ [Y190P],-0.905
3,MRKPRAAVGSGHRKQAASQEGRQKHAKNNSQAKPSACDGLARQPEEVVLQASVSSYHLFRDVAEVTAFRGSLLSWYDQEKRDLPWRRRAEDEMDLDRRAYAVWVSEVMLQQTQVATVINYYTGWMQKWPTLQDLASASLEEVNQLWAGLGYYSRGRRLQEGARKVVEELGGHMPRTAETLQQLLPGVGRVTAGAIASIAFGQATGVVDGNVARVLCRVRAIGADPSSTLVSQQLWGLAQQLVDPARPGDFNQAAMELGATVCTPQRPLCSQCPVESLCRARQRVEQEQLLASGSLSGSPDVEECAPNTGQCHLCLPPSEPWDQTLGVVNFPRKASRKPPREESSATCVLEQPGALGAQILLVQRPNSGLLAGLWEFPSVTWEPSEQLQRKALLQELQRWAGPLPATHLRHLGEVVHTFSHIKLTYQVYGLALEGQTPVTTVPPGARWLTQEEFHTAAVSTAMKKVFRVYQGQQPGTCMGSKRSQVSSPCSRKKPRMGQQVLDNFFRSHISTDAHSLNSAAQ [Y190V],-0.566
4,MRKPRAAVGSGHRKQAASQEGRQKHAKNNSQAKPSACDGLARQPEEVVLQASVSSYHLFRDVAEVTAFRGSLLSWYDQEKRDLPWRRRAEDEMDLDRRAYAVWVSEVMLQQTQVATVINYYTGWMQKWPTLQDLASASLEEVNQLWAGLGYYSRGRRLQEGARKVVEELGGHMPRTAETLQQLLPGVGRRTAGAIASIAFGQATGVVDGNVARVLCRVRAIGADPSSTLVSQQLWGLAQQLVDPARPGDFNQAAMELGATVCTPQRPLCSQCPVESLCRARQRVEQEQLLASGSLSGSPDVEECAPNTGQCHLCLPPSEPWDQTLGVVNFPRKASRKPPREESSATCVLEQPGALGAQILLVQRPNSGLLAGLWEFPSVTWEPSEQLQRKALLQELQRWAGPLPATHLRHLGEVVHTFSHIKLTYQVYGLALEGQTPVTTVPPGARWLTQEEFHTAAVSTAMKKVFRVYQGQQPGTCMGSKRSQVSSPCSRKKPRMGQQVLDNFFRSHISTDAHSLNSAAQ [Y190R],-1.06
5,MRKPRAAVGSGHRKQAASQEGRQKHAKNNSQAKPSACDGLARQPEEVVLQASVSSYHLFRDVAEVTAFRGSLLSWYDQEKRDLPWRRRAEDEMDLDRRAYAVWVSEVMLQQTQVATVINYYTGWMQKWPTLQDLASASLEEVNQLWAGLGYYSRGRRLQEGARKVVEELGGHMPRTAETLQQLLPGVGRMTAGAIASIAFGQATGVVDGNVARVLCRVRAIGADPSSTLVSQQLWGLAQQLVDPARPGDFNQAAMELGATVCTPQRPLCSQCPVESLCRARQRVEQEQLLASGSLSGSPDVEECAPNTGQCHLCLPPSEPWDQTLGVVNFPRKASRKPPREESSATCVLEQPGALGAQILLVQRPNSGLLAGLWEFPSVTWEPSEQLQRKALLQELQRWAGPLPATHLRHLGEVVHTFSHIKLTYQVYGLALEGQTPVTTVPPGARWLTQEEFHTAAVSTAMKKVFRVYQGQQPGTCMGSKRSQVSSPCSRKKPRMGQQVLDNFFRSHISTDAHSLNSAAQ [Y190M],-0.762
6,MRKPRAAVGSGHRKQAASQEGRQKHAKNNSQAKPSACDGLARQPEEVVLQASVSSYHLFRDVAEVTAFRGSLLSWYDQEKRDLPWRRRAEDEMDLDRRAYAVWVSEVMLQQTQVATVINYYTGWMQKWPTLQDLASASLEEVNQLWAGLGYYSRGRRLQEGARKVVEELGGHMPRTAETLQQLLPGVGRQTAGAIASIAFGQATGVVDGNVARVLCRVRAIGADPSSTLVSQQLWGLAQQLVDPARPGDFNQAAMELGATVCTPQRPLCSQCPVESLCRARQRVEQEQLLASGSLSGSPDVEECAPNTGQCHLCLPPSEPWDQTLGVVNFPRKASRKPPREESSATCVLEQPGALGAQILLVQRPNSGLLAGLWEFPSVTWEPSEQLQRKALLQELQRWAGPLPATHLRHLGEVVHTFSHIKLTYQVYGLALEGQTPVTTVPPGARWLTQEEFHTAAVSTAMKKVFRVYQGQQPGTCMGSKRSQVSSPCSRKKPRMGQQVLDNFFRSHISTDAHSLNSAAQ [Y190Q],-0.567
7,MRKPRAAVGSGHRKQAASQEGRQKHAKNNSQAKPSACDGLARQPEEVVLQASVSSYHLFRDVAEVTAFRGSLLSWYDQEKRDLPWRRRAEDEMDLDRRAYAVWVSEVMLQQTQVATVINYYTGWMQKWPTLQDLASASLEEVNQLWAGLGYYSRGRRLQEGARKVVEELGGHMPRTAETLQQLLPGVGRNTAGAIASIAFGQATGVVDGNVARVLCRVRAIGADPSSTLVSQQLWGLAQQLVDPARPGDFNQAAMELGATVCTPQRPLCSQCPVESLCRARQRVEQEQLLASGSLSGSPDVEECAPNTGQCHLCLPPSEPWDQTLGVVNFPRKASRKPPREESSATCVLEQPGALGAQILLVQRPNSGLLAGLWEFPSVTWEPSEQLQRKALLQELQRWAGPLPATHLRHLGEVVHTFSHIKLTYQVYGLALEGQTPVTTVPPGARWLTQEEFHTAAVSTAMKKVFRVYQGQQPGTCMGSKRSQVSSPCSRKKPRMGQQVLDNFFRSHISTDAHSLNSAAQ [Y190N],-0.443
8,MRKPRAAVGSGHRKQAASQEGRQKHAKNNSQAKPSACDGLARQPEEVVLQASVSSYHLFRDVAEVTAFRGSLLSWYDQEKRDLPWRRRAEDEMDLDRRAYAVWVSEVMLQQTQVATVINYYTGWMQKWPTLQDLASASLEEVNQLWAGLGYYSRGRRLQEGARKVVEELGGHMPRTAETLQQLLPGVGRLTAGAIASIAFGQATGVVDGNVARVLCRVRAIGADPSSTLVSQQLWGLAQQLVDPARPGDFNQAAMELGATVCTPQRPLCSQCPVESLCRARQRVEQEQLLASGSLSGSPDVEECAPNTGQCHLCLPPSEPWDQTLGVVNFPRKASRKPPREESSATCVLEQPGALGAQILLVQRPNSGLLAGLWEFPSVTWEPSEQLQRKALLQELQRWAGPLPATHLRHLGEVVHTFSHIKLTYQVYGLALEGQTPVTTVPPGARWLTQEEFHTAAVSTAMKKVFRVYQGQQPGTCMGSKRSQVSSPCSRKKPRMGQQVLDNFFRSHISTDAHSLNSAAQ [Y190L],-0.851
9,MRKPRAAVGSGHRKQAASQEGRQKHAKNNSQAKPSACDGLARQPEEVVLQASVSSYHLFRDVAEVTAFRGSLLSWYDQEKRDLPWRRRAEDEMDLDRRAYAVWVSEVMLQQTQVATVINYYTGWMQKWPTLQDLASASLEEVNQLWAGLGYYSRGRRLQEGARKVVEELGGHMPRTAETLQQLLPGVGRITAGAIASIAFGQATGVVDGNVARVLCRVRAIGADPSSTLVSQQLWGLAQQLVDPARPGDFNQAAMELGATVCTPQRPLCSQCPVESLCRARQRVEQEQLLASGSLSGSPDVEECAPNTGQCHLCLPPSEPWDQTLGVVNFPRKASRKPPREESSATCVLEQPGALGAQILLVQRPNSGLLAGLWEFPSVTWEPSEQLQRKALLQELQRWAGPLPATHLRHLGEVVHTFSHIKLTYQVYGLALEGQTPVTTVPPGARWLTQEEFHTAAVSTAMKKVFRVYQGQQPGTCMGSKRSQVSSPCSRKKPRMGQQVLDNFFRSHISTDAHSLNSAAQ [Y190I],-0.823
10,MRKPRAAVGSGHRKQAASQEGRQKHAKNNSQAKPSACDGLARQPEEVVLQASVSSYHLFRDVAEVTAFRGSLLSWYDQEKRDLPWRRRAEDEMDLDRRAYAVWVSEVMLQQTQVATVINYYTGWMQKWPTLQDLASASLEEVNQLWAGLGYYSRGRRLQEGARKVVEELGGHMPRTAETLQQLLPGVGRSTAGAIASIAFGQATGVVDGNVARVLCRVRAIGADPSSTLVSQQLWGLAQQLVDPARPGDFNQAAMELGATVCTPQRPLCSQCPVESLCRARQRVEQEQLLASGSLSGSPDVEECAPNTGQCHLCLPPSEPWDQTLGVVNFPRKASRKPPREESSATCVLEQPGALGAQILLVQRPNSGLLAGLWEFPSVTWEPSEQLQRKALLQELQRWAGPLPATHLRHLGEVVHTFSHIKLTYQVYGLALEGQTPVTTVPPGARWLTQEEFHTAAVSTAMKKVFRVYQGQQPGTCMGSKRSQVSSPCSRKKPRMGQQVLDNFFRSHISTDAHSLNSAAQ [Y190S],-0.22
11,MRKPRAAVGSGHRKQAASQEGRQKHAKNNSQAKPSACDGLARQPEEVVLQASVSSYHLFRDVAEVTAFRGSLLSWYDQEKRDLPWRRRAEDEMDLDRRAYAVWVSEVMLQQTQVATVINYYTGWMQKWPTLQDLASASLEEVNQLWAGLGYYSRGRRLQEGARKVVEELGGHMPRTAETLQQLLPGVGRWTAGAIASIAFGQATGVVDGNVARVLCRVRAIGADPSSTLVSQQLWGLAQQLVDPARPGDFNQAAMELGATVCTPQRPLCSQCPVESLCRARQRVEQEQLLASGSLSGSPDVEECAPNTGQCHLCLPPSEPWDQTLGVVNFPRKASRKPPREESSATCVLEQPGALGAQILLVQRPNSGLLAGLWEFPSVTWEPSEQLQRKALLQELQRWAGPLPATHLRHLGEVVHTFSHIKLTYQVYGLALEGQTPVTTVPPGARWLTQEEFHTAAVSTAMKKVFRVYQGQQPGTCMGSKRSQVSSPCSRKKPRMGQQVLDNFFRSHISTDAHSLNSAAQ [Y190W],-0.479
12,MRKPRAAVGSGHRKQAASQEGRQKHAKNNSQAKPSACDGLARQPEEVVLQASVSSYHLFRDVAEVTAFRGSLLSWYDQEKRDLPWRRRAEDEMDLDRRAYAVWVSEVMLQQTQVATVINYYTGWMQKWPTLQDLASASLEEVNQLWAGLGYYSRGRRLQEGARKVVEELGGHMPRTAETLQQLLPGVGRKTAGAIASIAFGQATGVVDGNVARVLCRVRAIGADPSSTLVSQQLWGLAQQLVDPARPGDFNQAAMELGATVCTPQRPLCSQCPVESLCRARQRVEQEQLLASGSLSGSPDVEECAPNTGQCHLCLPPSEPWDQTLGVVNFPRKASRKPPREESSATCVLEQPGALGAQILLVQRPNSGLLAGLWEFPSVTWEPSEQLQRKALLQELQRWAGPLPATHLRHLGEVVHTFSHIKLTYQVYGLALEGQTPVTTVPPGARWLTQEEFHTAAVSTAMKKVFRVYQGQQPGTCMGSKRSQVSSPCSRKKPRMGQQVLDNFFRSHISTDAHSLNSAAQ [Y190K],-1.27
